Measurements published in PMC6426973, “Oligomeric self-association contributes to E2A-PBX1-mediated oncogenesis”.

Target: T1, E2A-PBX1 ΔPBC-B (MBP fusion) (UniProt P15923 1-483+P40424:232-430, internal_change)
T1 sequence: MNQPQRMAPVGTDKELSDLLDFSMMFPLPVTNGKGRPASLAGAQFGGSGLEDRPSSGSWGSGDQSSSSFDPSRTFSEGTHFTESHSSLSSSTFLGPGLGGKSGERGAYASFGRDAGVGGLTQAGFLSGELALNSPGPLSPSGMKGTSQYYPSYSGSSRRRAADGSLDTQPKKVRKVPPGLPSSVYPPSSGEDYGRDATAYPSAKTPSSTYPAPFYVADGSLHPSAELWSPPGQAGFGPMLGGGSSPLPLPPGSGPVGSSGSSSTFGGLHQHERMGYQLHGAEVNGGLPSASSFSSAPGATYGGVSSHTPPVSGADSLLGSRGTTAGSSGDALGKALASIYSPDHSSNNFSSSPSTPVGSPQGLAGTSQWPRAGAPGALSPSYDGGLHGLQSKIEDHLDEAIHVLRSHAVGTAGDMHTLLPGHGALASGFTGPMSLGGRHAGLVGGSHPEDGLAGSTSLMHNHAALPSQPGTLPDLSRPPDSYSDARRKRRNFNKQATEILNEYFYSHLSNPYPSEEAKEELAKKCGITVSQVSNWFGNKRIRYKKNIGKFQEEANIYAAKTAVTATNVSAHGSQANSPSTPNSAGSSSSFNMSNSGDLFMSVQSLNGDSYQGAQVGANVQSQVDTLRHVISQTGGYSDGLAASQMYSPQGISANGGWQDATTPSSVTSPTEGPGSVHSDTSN
Test: EMSA; LightShift Chemiluminescent EMSA kit (manufacturer's conditions), room temperature 20 min, 5% TBE gel in 0.5X TBE; salt and pH not stated
Settings: protein: recombinant; tags: MBP; label: biotin (end label); blunt

B1: PBX1 consensus site oligonucleotide (dsDNA)
DNA 1: TGATTGATTGATTGAT
DNA 2: ATCAATCAATCAATCA
Question: Does B1 bind?
Answer: no binding
